Results: paper PMC6222199, “Regulatory Targets of the Response Regulator RR_1586 from Clostridioides difficile Identified Using a Bacterial One-Hybrid Screen”

How the values were obtained:
RR_1586 [1] = molecular target: T1, RR_1586 (Clostridioides difficile R20291, UniProt A0A9R0BKD1 1-223); experiment: EMSA; 10 mM Mg2+; EMSA: 5 pmol DNA in 10 ul (500 nM), 10 mM Tris pH 8, 50 mM NaCl, 10 mM MgCl2, room temperature 10 min; 10% PAGE 0.5x TBE on ice, ethidium bromide; conditions: protein: recombinant; tags: His6; chain copies: 2; blunt
RR_1586 [2] = molecular target: T1, RR_1586; experiment: EMSA; 10 mM Mg2+; unphosphorylated; EMSA: 5 pmol DNA in 10 ul (500 nM), 10 mM Tris pH 8, 50 mM NaCl, 10 mM MgCl2, room temperature 10 min; 10% PAGE 0.5x TBE on ice, ethidium bromide; conditions: protein: recombinant; tags: His6; chain copies: 2; blunt

| Binder | binding result (RR_1586 [1]) | binding result (RR_1586 [2]) |
| --- | --- | --- |
| CDR20291_0578 native direct repeat (dsDNA) DNA 1: ATTTTATTAAGAATGGGTTAAGAGTATAC DNA 2: GTATACTCTTAACCCATTCTTAATAAAAT | binds |  |
| CDR20291_3145 site (dsDNA) DNA 1: ATAGTTAAGGTTTAATTAAGATTAAA DNA 2: TTTAATCTTAATTAAACCTTAACTAT | binds |  |
| CDR20291_1583 site (dsDNA) DNA 1: AGGAATTAAGGAGCAATTAAATGATG DNA 2: CATCATTTAATTGCTCCTTAATTCCT |  | binds |
| CDR20291_3121 (pst) site (dsDNA) DNA 1: CTATATTAGGATTAAGTTAAGCAAGTGT DNA 2: ACACTTGCTTAACTTAATCCTAATATAG | binds |  |
